Experimental data taken from article PMC5646249, “Structural Basis of Type 2 Secretion System Engagement between the Inner and Outer Bacterial Membranes” (mBio, 2017).

Molecular target: the molecule itself
Test: cryo-EM structure; single-particle cryo-EM of the detergent-solubilised, amphipol-stabilised ~1-MDa XcpQ multimer flash frozen on vitreous ice; Titan Krios, Gatan K2 Summit; 18,000+ particles; 2D class averages and 3D reconstruction under C15 symmetry, 3.6 Å

B1: XcpQ secretin of the Pseudomonas aeruginosa PAO1 type 2 secretion system (natural protein)
chain: ENSGGNAFVPAGNQQEAHWTINLKDADIREFIDQISEITGETFVVDPRVKGQVSVVSKAQLSLSEVYQLFLSVMSTHGFTVVAQGDQARIVPNAEAKTEAGGGQSAPDRLETRVIQVQQSPVSELIPLIRPLVPQYGHLAAVPSANALIISDRSANIARIEDVIRQLDQKGSHDYSVINLRYGWVMDAAEVLNNAMSRGQAKGAAGAQVIADARTNRLIILGPPQARAKLVQLAQSLDTPTARSANTRVIRLRHNDAKTLAETLGQISEGMKNNGGQGGEQTGGGRPSNILIRADESTNALVLLADPDTVNALEDIVRQLDVPRAQVLVEAAIVEISGDIQDAVGVQWAINKGGMGGTKTNFANTGLSIGTLLQSLESNKAPESIPDGAIVGIGSSSFGALVTALSANTKSNLLSTPSLLTLDNQKAEILVGQNVPFQTGSYTTNSEGSSNPFTTVERKDIGVSLKVTPHINDGAALRLEIEQEISALLPNAQQRNNTDLITSKRSIKSTILAENGQVIVIGGLIQDDVSQAESKVPLLGDIPLLGRLFRSTKDTHTKRNLMVFLRPTVVRDSAGLAALSGKKYSDIRVIDGTRGPEGRPSILPTNANQLFDGQAVDLRELMTE
notes: XcpQ, the secretin of the ancestral T2SS of Pseudomonas aeruginosa PAO1; four N domains (N0-N3), secretin domain (Pfam PF00263), S domain; numbers count on: the mature protein; N0 domains not seen and N1 domains poorly resolved in the map, though part of the purified protein; also called XcpQ secretin complex; XcpQ multimer; copies: 15
- stoichiometry N: 15
